According to publication PMC10685657:

Target: HA-TRIP12
Assay: co-IP (IP-GFP, immunoblot for TRIP12; band intensity printed above lanes)
Conditions: HEK293T cells, harvested for lysis 48 h after transfection; HA-TRIP12 co-transfected

## GFP-EZH2 wildtype (from UniProt Q15910) K634R
  ratio to parent: 0.16
